Laboratory results: PMC11499256, “Two-factor authentication underpins the precision of the piRNA pathway” (Nature, 2024)
Each block holds one binder with its values, some of them ahead of it.

Experiments:
[1] = target: T1, His-tagged SPIN1 (49–262) (mouse, UniProt Q61142 49-262); experiment: SEC; SPIN1–SPOCD1 fragment 1b complex purified on an S200 increase column before the nucleosome pull-down; settings: both partners purified
T1 construct: mouse SPIN1 (Q61142), amino acids 49–262; 'Purified as above' would include cleavage of the tag, yet the protein is called His-tagged and detected by anti-His; source: E. coli BL21 (DE3), purified
T1 sequence (Q61142 49-262): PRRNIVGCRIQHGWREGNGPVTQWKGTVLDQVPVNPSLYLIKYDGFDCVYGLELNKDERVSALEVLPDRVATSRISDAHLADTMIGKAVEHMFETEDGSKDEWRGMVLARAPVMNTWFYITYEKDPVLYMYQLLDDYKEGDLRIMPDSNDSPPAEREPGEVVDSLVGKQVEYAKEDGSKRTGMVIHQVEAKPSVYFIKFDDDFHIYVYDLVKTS

[2] = target: T2, mouse SPIN1 (amino acids 49–262), recombinant, His tag cleaved (mouse, UniProt Q61142 49-262); experiment: pull-down; co-precipitation of recombinant proteins, Coomassie gel, n = 3; settings: both partners purified
T2 construct: mouse SPIN1 (Q61142), amino acids 49–262; The SPIN1 construct was cleaved with GST–3C protease overnight; also called recombinant SPIN1; source: E. coli BL21 (DE3), purified (His-tag column, 3C cleavage, ion exchange, SEC)
T2 sequence (Q61142 49-262): as above

binding result [1]: binds
B1: His-tagged SPOCD1 fragment 1b (domain or fragment, mouse, UniProt B1ASB6 203-409, looked up)
chain: VTQEPLQSPALYPEVLTEDSTDQQEVQPAFVVGSPGTPPDPVGPEDKAQSGSRMELEQGLSAPANSCASSPEPLGGLDGAPLEQRRPTHVKKRPWTSPDDSSQDHAEGASKKDFPRLEARVPRGVKTVYYVYTGSGIRLVGAASSSQPGQIEPLEELDTNSARRKRRPTTAHPTPCQSDPSETENAEPHQQRAEDPGEQGMTPLDAG
notes: source: E. coli BL21 (DE3), purified

binding result [2]: binds
B2: mouse GST–SPOCD1-F1b (amino acids 203–409), recombinant (domain or fragment, UniProt B1ASB6 203-409, looked up)
chain: B1 chain
notes: pET-based backbone; also called GST–F1b; SPOCD1 fragment 1b; source: E. coli BL21 (DE3), purified (glutathione sepharose, dialysis)
